Measurements taken from paper PMC5722948, “A tyrosinase, mTyr-CNK, that is functionally available as a monophenol monooxygenase” (Scientific Reports, 2017).

Columns and labels:
purified protein [1] = substrate: N[C@@H](Cc1ccc(O)c(O)c1)C(=O)O; experiment: purified protein; format: biochemical, Candidatus Nitrosopumilus koreensis; settings: diphenolase
purified protein [2] = substrate: N[C@@H](Cc1ccc(O)cc1)C(=O)O; experiment: purified protein; format: biochemical, Candidatus Nitrosopumilus koreensis; settings: monophenolase
[3] = 50 mM Tris pH 6.0, 0.01 mM CuSO4, 20 °C, substrate range 0.025–0.0625 mM

| Protein | Km (purified protein [1]; pH 6, 20 °C) [µM] | kcat (purified protein [1]; pH 6, 20 °C) [s⁻¹] | Km (purified protein [2]; pH 6, 20 °C) [µM] | kcat (purified protein [2]; pH 6, 20 °C) [s⁻¹] | Km (purified protein [1]; [3]) [µM] | kcat (purified protein [1]; [3]) [s⁻¹] | kcat/Km (purified protein [1]; [3]) [M⁻¹ s⁻¹] | Km (purified protein [2]; [3]) [µM] | kcat (purified protein [2]; [3]) [s⁻¹] | kcat/Km (purified protein [2]; [3]) [M⁻¹ s⁻¹] |
| --- | --- | --- | --- | --- | --- | --- | --- | --- | --- | --- |
| cTyr-CNK (Candidatus Nitrosopumilus koreensis AR1) (protein, core tyrosinase domain, residues 1-293, C-terminal 294-415 removed; His6 tag (pET23b+), E. coli BL21(DE3), Ni-NTA purified) MTRKNAKDFLPDERQRYCNALLTLKQTIEPGHTLSKYDEFVAIHYGVTRRLRNGIPIGDGAHFVPGFLAWHREYLNRFEKAIRTVDSTLSLPYWNWSSGDDTDTTEIFTDDFMGPPGDPNNGNKITSGYFVENNWEVHSELDGGNNGSVLVRDSTLLSSSKLSQVSGYGELAMDAVNGDNDFDSFLPGLEGPHGSIHMWIGGHMTSMTSPNDPIFFLHHANIDRLWSKWQELHPGPENYNPNNDGSYGSRLNDRMWPWDGSEDTTTTRTGTATGISLQGLLPTFSDYDIVTPR | 560 ± 40 | 2.05 ± 0.10 | 1600 ± 650 | 2.13 ± 0.79 |  |  |  |  |  |  |
| mTyr-CNK (Candidatus Nitrosopumilus koreensis AR1) (protein, mature form, residues 1-303, C-terminal extension 304-415 removed; His6 tag (pET23b+), codon-optimized gene, E. coli BL21(DE3), Ni-NTA purified) MTRKNAKDFLPDERQRYCNALLTLKQTIEPGHTLSKYDEFVAIHYGVTRRLRNGIPIGDGAHFVPGFLAWHREYLNRFEKAIRTVDSTLSLPYWNWSSGDDTDTTEIFTDDFMGPPGDPNNGNKITSGYFVENNWEVHSELDGGNNGSVLVRDSTLLSSSKLSQVSGYGELAMDAVNGDNDFDSFLPGLEGPHGSIHMWIGGHMTSMTSPNDPIFFLHHANIDRLWSKWQELHPGPENYNPNNDGSYGSRLNDRMWPWDGSEDTTTTRTGTATGISLQGLLPTFSDYDIVTPRHVLDNNLTIP |  |  |  |  | 490 ± 40 | 0.87 ± 0.07 | 1810 ± 260 | 2120 ± 140 | 3.33 ± 0.18 | 1570 ± 10 |
